One molecule from patent US20160362487A1 (Regeneron, published 2016) can be followed below.

The target of assay [1] is T1, human IL-33 (R&D Systems, #3625-IL-010/CF) (human, UniProt O95760 112-270).
T1 construct: Commercial recombinant protein; also called hIL-33; interleukin-33
T1 sequence (looked up): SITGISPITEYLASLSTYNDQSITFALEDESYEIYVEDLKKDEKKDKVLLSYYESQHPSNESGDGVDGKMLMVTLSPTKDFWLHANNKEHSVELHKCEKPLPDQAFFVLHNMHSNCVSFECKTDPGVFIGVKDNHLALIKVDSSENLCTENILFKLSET
Put plainly: BLI; hIL-33 pre-mixed with mAb-2 Isotype control 1. The procedure:
(§1) Binding competition between a panel of different anti-IL-33 monoclonal antibodies was determined using a real time, label-free bio-layer interferometry assay on an Octet® HTX biosensor (ForteBio, A Division of Pall Life Sciences). The experiment was performed at 25° C. using a buffer of 0.01M HEPES pH7.4, 0.15M NaCl, 0.05% v/v Surfactant Tween-20, and 0.1 mg/ml BSA (HBS-ET kinetics buffer) with the plate shaking at a speed of 1000 rpm. To assess whether two antibodies were able to compete with one another for binding to human IL-33, a pre-mix assay format was used where 100 nM of human IL-33 (R&D Systems; #3625-IL-010/CF) was pre-mixed with 500 nM of different anti-IL-33 monoclonal antibodies (subsequently referred to as mAb-2) for at least 2 hours prior to running the binding competition assay. […] Following the capture step, unoccupied anti-mouse Fc polyclonal antibody and anti-human Fc polyclonal antibody on the Octet biosensors were saturated by submerging them for 4 minutes into wells containing 200 μg/mL of a non-specific monoclonal antibody with a mouse Fc or with a human Fc, respectively. Finally, the Octet biosensors were immersed for 4 minutes into wells containing the pre-mixed samples of 100 nM of human IL-33 and 500 nM of mAb-2. At the end of each cycle, the non-covalently captured anti-IL-33 antibodies along with the bound pre-complex of human IL-33 and mAb-2 were removed from the biosensors using three alternate 20 second immersions into 10 mM HCl followed by submerging into HBS-ET kinetics buffer. The biosensors were washed in HBS-ET kinetics buffer in between every step of the experiment. The real-time binding response was monitored during the binding events, and the binding response (in units of nm) at the end of every step was recorded.
On the technique in general: BLI is a label-free optical method that tracks binding on a fibre tip over time.

In assay [2] the target is T1, human IL-33 (R&D Systems, …). Briefly: BLI; hIL-33 pre-mixed with mAb-2 H1M9565N. The procedure: as §1
For assay [3], the target named is T2, pre-formed complex of hIL-33 and captured hST2-MMH (human, UniProt O95760 112-270).
T2 construct: Ligand-receptor complex on the sensor: hST2-MMH captured by anti-myc mAb and saturated with 100 nM hIL-33; also called hIL-33 pre-complexed with hST2-MMH
Put plainly: SPR 25C, 100 nM mAb over hIL-33/hST2-MMH complex. As for the experimental part:
The ability of anti-IL-33 antibodies to bind to a pre-formed complex of IL-33 with ST2 was tested using Biacore T-200 instrument equipped with a real-time surface plasmon resonance biosensor. The experiment was performed at 25° C. with a running buffer composed of 0.01M HEPES pH 7.4, 0.15M NaCl, 3 mM EDTA, and 0.05% v/v Surfactant Tween-20 (HBS-ET). […] The captured hST2-MMH surface was then saturated by injecting 100 nM of human IL-33 (hIL-33; R&D Systems, #3625-IL-010/CF) for 3 minutes followed by a 3 minute injection of a 100 nM solution of the anti-IL-33 monoclonal antibody. The real-time binding response was monitored during the entire course of the experiment, and the observed binding response at 3 minutes after injection of anti-IL-33 antibody to the pre-formed complex of hIL-33 and captured hST2-MMH was recorded and tabulated and shown in Table 7. No non-specific binding of anti-IL-33 monoclonal antibody to the anti-myc tag capture surface was observed.

The target of assay [4] is T3, cynomolgus monkey IL-33 expressed with a C-terminal hexahistidine tag (cynomolgus monkey).
T3 construct: also called MfIL-33-6His; Mf-IL-33-6His
T3 chain: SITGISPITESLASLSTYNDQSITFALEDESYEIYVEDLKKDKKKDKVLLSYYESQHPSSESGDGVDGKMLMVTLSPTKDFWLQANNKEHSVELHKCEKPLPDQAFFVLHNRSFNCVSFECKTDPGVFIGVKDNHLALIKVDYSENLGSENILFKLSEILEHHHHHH
Briefly: BLI; mAb-1 on captured MfIL-33-6His. The procedure:
Binding competition between a panel of different anti-IL-33 monoclonal antibodies was determined using a real time, label-free bio-layer interferometry assay on an Octet® HTX biosensor (ForteBio, A Division of Pall Life Sciences). The experiment was performed at 25° C. using a buffer of 0.01M HEPES pH7.4, 0.15M NaCl, 3 mM EDTA, 0.05% v/v Surfactant Tween-20, and 0.1 mg/ml BSA (HBS-ET kinetics buffer) with the plate shaking at a speed of 1000 rpm. […] The antigen-captured biosensors were then saturated with a first anti-IL-33 monoclonal antibody (subsequently referred to as mAb-1) by immersion into wells containing 50 μg/mL solution of mAb-1 for 5 minutes. The biosensors were then dipped into wells containing a 50 μg/mL solution of a second anti-IL-33 monoclonal antibody (subsequently referred to as mAb-2) for 4 minutes. The biosensors were washed in HBS-ET kinetics buffer in between every step of the experiment. The real-time binding response was monitored during the experiment, and the maximum binding response for each binding step was recorded. The response of mAb-2 binding to MfIL-33-6His pre-complexed with mAb-1 was measured, and competitive/non-competitive behavior of different anti-IL-33 monoclonal antibodies with respect to each other was determined.

T2 sequence (chain, as listed by the source limits assumed, chain 2 of 2, one chain of several): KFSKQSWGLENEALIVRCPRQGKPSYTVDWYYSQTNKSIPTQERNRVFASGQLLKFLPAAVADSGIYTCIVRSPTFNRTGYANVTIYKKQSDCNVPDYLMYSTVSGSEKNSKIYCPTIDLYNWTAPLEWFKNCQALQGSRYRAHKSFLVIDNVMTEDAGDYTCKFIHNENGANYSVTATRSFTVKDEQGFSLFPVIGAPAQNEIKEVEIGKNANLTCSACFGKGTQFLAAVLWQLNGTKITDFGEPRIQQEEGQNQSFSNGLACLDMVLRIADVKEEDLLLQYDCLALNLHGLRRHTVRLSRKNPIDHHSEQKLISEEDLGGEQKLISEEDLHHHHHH

B1: H1M9559N (antibody, mouse IgG1, V domains shown)
VH: QVQLVESGGGVVQPGRSLRLSCAASGFTFSSYGMHWVRQAPGKGLEWVAVIWYDGRNKYYTDSVKGRFTISRDNSKNTLYLQMDSLRAEDTAVYYCARERYISSYYGGFDPWGQGALVTVSS
VL: DIQMTQSPSSVSASVGDRVTITCRASQGISSWLAWYQQKPGKAPKVLIYAASSLQSGVPSRFSGSGSGTDFTLTISSLQPEDFATYYCQQANSFPFTFGPGTKLDIK
notes: Human variable domains, mouse IgG1 Fc (H1M)
Regarding B1, the “mAb-1 Binding to the Pre-complex of mAb-2 & hIL-33” value worked out at 0.06 nm in assay [1] and 0.35 nm in assay [2]. Further, the “Antibody Binding Response (RU)” value in assay [3] is -4 RU. The “mAb-1 Binding (nm)” value in assay [4] was determined as 0.5 nm.
